Target: T1, C4b-binding protein (human, UniProt P04003 49-597; P20851 18-252)
T1 chain 1: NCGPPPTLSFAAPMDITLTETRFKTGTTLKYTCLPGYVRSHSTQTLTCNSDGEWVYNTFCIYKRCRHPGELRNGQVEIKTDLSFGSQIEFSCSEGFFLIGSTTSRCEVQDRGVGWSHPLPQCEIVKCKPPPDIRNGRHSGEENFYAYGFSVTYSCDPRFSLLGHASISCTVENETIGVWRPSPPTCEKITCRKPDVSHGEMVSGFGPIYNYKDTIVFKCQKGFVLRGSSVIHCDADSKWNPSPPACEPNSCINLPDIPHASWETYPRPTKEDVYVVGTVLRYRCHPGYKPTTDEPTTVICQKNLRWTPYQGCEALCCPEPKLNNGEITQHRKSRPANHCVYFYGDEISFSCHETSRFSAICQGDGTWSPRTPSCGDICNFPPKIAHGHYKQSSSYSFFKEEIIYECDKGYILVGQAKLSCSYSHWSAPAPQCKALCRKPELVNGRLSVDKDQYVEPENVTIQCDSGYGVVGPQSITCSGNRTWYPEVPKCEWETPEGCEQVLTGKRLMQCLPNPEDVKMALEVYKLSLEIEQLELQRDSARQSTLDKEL
T1 chain 2: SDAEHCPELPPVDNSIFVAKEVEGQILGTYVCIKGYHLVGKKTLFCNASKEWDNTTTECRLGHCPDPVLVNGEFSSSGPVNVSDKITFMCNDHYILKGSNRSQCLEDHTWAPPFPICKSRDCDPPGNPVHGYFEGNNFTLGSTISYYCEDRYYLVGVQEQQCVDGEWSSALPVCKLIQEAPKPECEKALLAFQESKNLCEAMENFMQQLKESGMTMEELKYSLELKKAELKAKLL
Experiment: SPR

B1: M28 protein, recombinant, affinity tag removed by TEV protease (natural protein)
chain: AESPKSTETSANGADKLADAYNTLLTEHEKLRDEYYTLIDAKEEEPRYKALRGENQDLREKEGKYQDKIKKLEEKEKNLEKKSEDVERHYLKKLDQEHKEQEERQKNLEELERQSQREIDKRYQEQLQKQQQLETEKQISEASRKSLSRDLEASRAAKKDLEAEHQKLKEEKQISDASRQGLSRDLEASRAAKKDLEAEHQKLKEEKQISDASRQGLSRDLEASREAKKKVEADLAEANSKLQALEKLNKELEEGKKLSEKEKAELQARLEAEAKALKEQLAKQAEELAKLKGNQTPNAKVAPQANRSRSAMTQQKR
  Kd: 0.188 nM
